In the test the target is CD20 on the surface of Raji cells (human (endogenous in Raji)) (UniProt P11836).
Sequence of UniProt P11836 (P11836 whole entry): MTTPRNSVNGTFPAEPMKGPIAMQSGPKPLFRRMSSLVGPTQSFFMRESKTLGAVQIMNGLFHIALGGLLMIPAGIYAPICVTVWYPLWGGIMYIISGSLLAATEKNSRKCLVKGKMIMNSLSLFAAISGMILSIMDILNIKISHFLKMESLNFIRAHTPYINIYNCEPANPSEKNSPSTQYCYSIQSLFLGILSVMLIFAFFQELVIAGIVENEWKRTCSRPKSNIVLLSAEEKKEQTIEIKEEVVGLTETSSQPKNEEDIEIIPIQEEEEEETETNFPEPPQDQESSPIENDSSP

On to rituximab (antibody), for which the EC50 of complement-dependent cytotoxicity on Raji cells (LDH release, guinea-pig complement) stood at 0.88 nM.

The values above are taken from publication PMC9103234.
